The results in this text go back to patent US20250250330A1.

“And” between values parts separate entries of the source, which are not always exact repeats. Equal values may be shown once.

The experiment concerns the target Recombinant human VEGF165 (Peprotech, Cat #100-20) (human) (UniProt P15692). The experiment is described as follows: ELISA; rhVEGF165 coated, anti-human IgG Fc-HRP detection.

Recombinant human VEGF165 (Peprotech, Cat #100-20) (human), sequence (P15692 other isoform, or with tags, fused parts or gaps limits assumed): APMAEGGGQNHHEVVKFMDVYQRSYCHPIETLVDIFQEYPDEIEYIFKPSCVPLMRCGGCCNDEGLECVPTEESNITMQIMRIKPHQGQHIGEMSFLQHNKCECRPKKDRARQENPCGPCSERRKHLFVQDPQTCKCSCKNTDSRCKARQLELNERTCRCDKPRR
Aflibercept (Fc fusion), sequence (chain): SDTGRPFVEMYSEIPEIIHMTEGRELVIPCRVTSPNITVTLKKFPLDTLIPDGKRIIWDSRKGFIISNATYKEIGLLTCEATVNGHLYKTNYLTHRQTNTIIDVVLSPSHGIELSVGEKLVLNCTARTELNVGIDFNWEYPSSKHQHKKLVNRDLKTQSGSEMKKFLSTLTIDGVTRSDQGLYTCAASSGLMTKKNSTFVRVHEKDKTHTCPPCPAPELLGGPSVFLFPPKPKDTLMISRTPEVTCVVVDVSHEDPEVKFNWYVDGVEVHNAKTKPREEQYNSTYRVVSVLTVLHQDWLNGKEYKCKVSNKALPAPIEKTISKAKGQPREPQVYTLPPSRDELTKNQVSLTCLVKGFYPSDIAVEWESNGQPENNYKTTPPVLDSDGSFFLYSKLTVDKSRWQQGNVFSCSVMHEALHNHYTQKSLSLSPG

As for Aflibercept (Fc fusion), the EC50 was 0.0513 nM and 0.074 nM and 0.0403 nM.
